Key:
cell cycle markers = assay: qPCR of cell-cycle-promoting genes and cell-cycle inhibitors in heart post-MI; format: in vivo, mouse; settings: 2 days post-MI; compared to Luc modRNA
Protocol: Total RNA was isolated using TRIzol™ RNA isolation and RNeasy® (Qiagen) then reverse transcribed with High-Capacity cDNA Reverse Transcription Kit (Applied Biosystems), according to the manufacturer's instructions. Real-time qPCR analyses were performed on a StepOnePlus™ Real-Time PCR System using SYBR™ Green (Applied Biosystems). The primer sequences were synthesized by IDT (see Table 4 below). Data were normalized to 18s expression, where appropriate (endogenous controls). Fold-changes in gene expression were determined by the […] method and were presented relative to an internal control.

[1] = system: serine synthesis pathway (SSP); assay: 13C glucose isotopic tracer metabolic flux analysis in neonatal rat CMs; format: cell-based
Protocol: P3 neonatal rat CMs (2×10^6) were cultured in DMEM and transfected with Luc or PSAT1 modRNA. After 6 hours medium was changed with ^13C glucose-containing DMEM. Samples were collected at 10 min, 2 hours and 18 hours by flash freezing the cell culture plates using liquid nitrogen and stored at −80° C. Metabolites were extracted from cells using 80% methanol (Magadum A., et al., Circulation. 2020, 141 (15): 1249-1265). Targeted LC/MS analyses were performed on a Q Exactive Orbitrap mass spectrometer (Thermo Scientific) coupled to a Vanquish UPLC system (Thermo Scientific). The Q Exactive was operated in polarity-switching mode. A Sequant ZIC-HILIC column (2.1 mm i.d.×150 mm, Merck) was used for separation of metabolites with a flow rate was 150 μL/min. […] Relative metabolite quantitation was performed based on peak area for each metabolite. All data analyses were done using scripts written in house (Metabolomics Facility, Biotechnology Resource Center, Cornell University).

[2] = system: serine synthesis pathway (SSP); assay: Serine and glycine levels in mouse heart post-MI; format: in vivo; settings: two days post-MI; HPLC study; vs Luc modRNA
cardiomyocytes (CM) = assay: DNA damage response immunostaining (8-OHG, pATM) in CMs post-MI; format: in vivo, mouse; settings: two days post-MI; compared to Luc
Protocol: Mice hearts were harvested, weighed, and fixed in 4% PFA/PBS overnight on shaker and then washed with PBS for 1 hour and incubated in 30% sucrose/PBS at 4° C. for 12-18 hours. Hearts were then fixed in OCT and frozen at −80° C. (Magadum A., et al., Circulation. 2020, 141 (15): 1249-1265). Transverse heart sections (6-8 μm) were made using a cryostat. Frozen sections were rehydrated in PBS for 5-10 min followed by permeabilization with PBS with 0.1% Triton™ X100 (PBST) for 7-8 min. Heart sections were then treated with 3% H2O2 for 5 min and washed (3×5 min) with PBST. The samples were then blocked with PBS+10% Donkey normal serum+0.1% Triton™ X100 (PBSST) for 1 hour at room temperature. Primary antibodies (see complete list of primary antibodies used for this Example in Table 2 below) diluted in PBST were added and incubated overnight at 4° C. […] For immunostaining with wheat germ agglutinin (WGA) for CM size quantification, images were captured at 40× magnification, and ImageJ was used to determine the area of each cell. Quantitative analyses involved counting of multiple fields from 5-8 mouse hearts per group, and 3-4 sections/heart (˜50 cells per field assessed, for a total ˜250 cells per sample). […] BrdU positive CMs were counted in multiple fields from three independent samples per group and 3 sections/heart. The total number of CMs counted was ˜1-1.5×10^3 CMs per section. […]

B1: PSAT1 modRNA: modified mRNA with N1-methylpseudouridine, transcribed in vitro, encoding phosphoserine aminotransferase 1 (ORF SEQ ID NO: 1, RNA SEQ ID NO: 2) (nucleic acid)
chain: AUGGAAGCCACCAAGCAAGUGGUUAACUUUGGGCCCGGGCCUGCCAAGCUGCCACACUCGGUAUUGUUGGAGAUCCAGAAGCAGCUACUAGACUACAGAGGACUCGGCAUCAGUGUGCUCGAAAUGAGUCACAGGUCAUCAGAUUUUGCCAAGAUUAUUGGCAAUACAGAGAAUCUUGUGAGGGAAUUGCUAGCUGUUCCCAACAACUACAAGGUGAUCUUUGUACAAGGAGGUGGGUCUGGCCAGUUCAGUGCUGUCCCCUUAAAUCUGAUUGGCCUGAAAGCUGGAAGGAGUGCUGACUACGUGGUGACCGGAGCUUGGUCAGCUAAGGCUGCGGAAGAAGCCAAGAAGUUUGGAACGGUGAACAUUGUCCACCCUAAACUUGGAAGUUACACAAAAAUUCCAGACCCAAGCACCUGGAACCUCAACCCGGACGCCUCCUAUGUAUACUUCUGUGCAAACGAGACUGUGCACGGGGUGGAGUUUGACUUCGUACCUGACGUCAAGGGAGCGGUGCUGGUCUGUGACAUGUCCUCAAACUUCUUAUCCAGGCCGGUGGAUGUUUCCAAGUUUGGUGUGAUUUUCGCUGGUGCUCAGAAGAAUGUUGGCUCUGCCGGGGUGACGGUGGUGAUUGUCCGGGAUGACCUGCUGGGGUUCUCGCUCAGAGAGUGCCCAUCAGUCCUUGACUACAAAGUGCAGGCUGGGAACAACUCUUUGUAUAACACACCUCCGUGCUUCAGCAUCUACGUCAUGGGCAUGGUCCUGGAAUGGAUCAAGAACAACGGCGGGGCCGCAGCCAUGGAGAAGCUCAGCUCCAUCAAAUCCCAAAUGAUUUAUGAGAUCAUUGAUAAUUCUCAAGGAUUUUAUGUAUGCCCAGUGGAGCGCCAGAAUAGAAGCAGGAUGAACAUCCCAUUUCGCAUUGGCAACGCCAAAGGAGACGAAGCUUUGGAAAAGCGGUUUCUUGACAAGGCGGUAGAACUCAACAUGAUCUCCUUGAAGGGGCACAGGUCAGUGGGAGGCAUUCGUGCCUCUCUGUAUAACGCUGUCACAACCGAAGACGUUGAGAAGCUGGCGGCCUUCAUGAAGAAUUUCUUGGAGAUGCAUCAGCUGUGA
modifications: N1-methylpseudouridine
- expression of positive cell cycle markers (cell cycle markers): induced
- negative regulators of cell cycle markers (cell cycle markers): inhibiting
- glutathione levels ([1]; 13C glucose flux): Increased
- purines AMP and GMP levels ([1]; 13C glucose flux): increased
- TCA cycle intermediates ([1]; 13C glucose, vs Luc modRNA): Increased levels
- metabolites involved in the serine synthesis pathway (SSP), including phosphoserine, serine, and glycine ([1]; 13C glucose, vs Luc modRNA): significant elevation
- glycine levels in heart [2]: increase
- serine levels in heart [2]: increase
- staining for nuclear 8-OHG (nuclear foci per CMs) (cardiomyocytes (CM)): significantly lower
- staining for pATM (nuclear foci per CMs) (cardiomyocytes (CM)): significantly lower

Reference: US20250215403A1, “Compositions and Methods for Cardiac Tissue Regeneration” (Temple University - Of The Commonwealth System Of Higher …, priority 2022, published 2025)
